Data set [1] concerns the target C-terminally c-myc tagged rIGFBP-5 (human IGFBP-5 followed by a c-myc and His tag, expressed in 293T cells), P24593.
Data set [2] has as its target rIGFBP-3 (gift of D. Powell), P17936.
The target in data set [3] is rIGFBP-5 (gift of D. Andress), P24593.
Sequence of rIGFBP-5 (gift of D. Andress), P24593 (P24593 21-272): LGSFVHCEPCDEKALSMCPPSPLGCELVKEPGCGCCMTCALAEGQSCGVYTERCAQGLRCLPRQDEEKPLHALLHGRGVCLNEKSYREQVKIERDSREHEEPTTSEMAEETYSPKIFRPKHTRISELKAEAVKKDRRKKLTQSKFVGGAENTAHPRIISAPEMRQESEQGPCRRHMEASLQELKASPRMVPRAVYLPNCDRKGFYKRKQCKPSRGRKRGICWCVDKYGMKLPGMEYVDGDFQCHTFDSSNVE

Sequence of C-terminally c-myc tagged rIGFBP-5 (human IGFBP-5 followed by a c-myc and His tag, expressed in 293T cells), P24593 (P24593 other isoform, or with tags, fused parts or gaps): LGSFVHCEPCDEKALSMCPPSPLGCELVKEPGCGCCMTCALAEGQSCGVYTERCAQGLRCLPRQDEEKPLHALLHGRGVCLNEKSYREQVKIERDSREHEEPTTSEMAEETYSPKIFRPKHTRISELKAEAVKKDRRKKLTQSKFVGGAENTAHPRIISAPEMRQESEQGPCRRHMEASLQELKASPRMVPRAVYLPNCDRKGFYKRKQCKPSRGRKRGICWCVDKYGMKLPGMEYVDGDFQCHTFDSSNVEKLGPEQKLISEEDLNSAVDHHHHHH
Sequence of rIGFBP-3 (gift of D. Powell), P17936 (P17936 28-291): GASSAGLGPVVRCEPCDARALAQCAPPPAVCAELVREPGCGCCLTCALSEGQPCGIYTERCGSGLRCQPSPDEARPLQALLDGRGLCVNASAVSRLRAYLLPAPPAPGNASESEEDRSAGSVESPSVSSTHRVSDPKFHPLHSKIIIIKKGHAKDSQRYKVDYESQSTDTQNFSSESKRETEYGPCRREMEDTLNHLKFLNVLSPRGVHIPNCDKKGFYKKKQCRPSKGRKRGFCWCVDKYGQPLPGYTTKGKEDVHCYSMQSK

B1: recombinant wild-type PAPP-A2 (pregnancy-associated plasma protein-A2), in medium of 293T cells transfected with pPA2 (protein)
chain: SPPEESNQNGGEGSYREAETFNSQVGLPILYFSGRRERLLLRPEVLAEIPREAFTVEAWVKPEGGQNNPAIIAGVFDNCSHTVSDKGWALGIRSGKDKGKRDARFFFSLCTDRVKKATILISHSRYQPGTWTHVAATYDGRHMALYVDGTQVASSLDQSGPLNSPFMASCRSLLLGGDSSEDGHYFRGHLGTLVFWSTALPQSHFQHSSQHSSGEEEATDLVLTASFEPVNTEWVPFRDEKYPRLEVLQGFEPEPEILSPLQPPLCGQTVCDNVELISQYNGYWPLRGEKVIRYQVVNICDDEGLNPIVSEEQIRLQHEALNEAFSRYNISWQLSVHQVHNSTLRHRVVLVNCEPSKIGNDHCDPECEHPLTGYDGGDCRLQGRCYSWNRRDGLCHVECNNMLNDFDDGDCCDPQVADVRKTCFDPDSPKRAYMSVKELKEALQLNSTHFLNIYFASSVREDLAGAATWPWDKDAVTHLGGIVLSPAYYGMPGHTDTMIHEVGHVLGLYHVFKGVSERESCNDPCKETVPSMETGDLCADTAPTPKSELCREPEPTSDTCGFTRFPGAPFTNYMSYTDDNCTDNFTPNQVARMHCYLDLVYQQWTESRKPTPIPIPPMVIGQTNKSLTIHWLPPISGVVYDRASGSLCGACTEDGTFRQYVHTASSRRVCDSSGYWTPEEAVGPPDVDQPCEPSLQAWSPEVHLYHMNMTVPCPTEGCSLELLFQHPVQADTLTLWVTSFFMESSQVLFDTEILLENKESVHLGPLDTFCDIPLTIKLHVDGKVSGVKVYTFDERIEIDAALLTSQPHSPLCSGCRPVRYQVLRDPPFASGLPVVVTHSHRKFTDVEVTPGQMYQYQVLAEAGGELGEASPPLNHIHGAPYCGDGKVSERLGEECDDGDLVSGDGCSKVCELEEGFNCVGEPSLCYMYEGDGICEPFERKTSIVDCGIYTPKGYLDQWATRAYSSHEDKKKCPVSLVTGEPHSLICTSYHPDLPNHRPLTGWFPCVASENETQDDRSEQPEGSLKKEDEVWLKVCFNRPGEARAIFIFLTTDGLVPGEHQQPTVTLYLTDVRGSNHSLGTYGLSCQHNPLIINVTHHQNVLFHHTTSVLLNFSSPRVGISAVALRTSSRIGLSAPSNCISEDEGQNHQGQSCIHRPCGKQDSCPSLLLDHADVVNCTSIGPGLMKCAITCQRGFALQASSGQYIRPMQKEILLTCSSGHWDQNVSCLPVDCGVPDPSLVNYANFSCSEGTKFLKRCSISCVPPAKLQGLSPWLTCLEDGLWSLPEVYCKLECDAPPIILNANLLLPHCLQDNHDVGTICKYECKPGYYVAESAEGKVRNKLLKIQCLEGGIWEQGSCIPVVCEPPPPVFEGMYECTNGFSLDSQCVLNCNQEREKLPILCTKEGLWTQEFKLCENLQGECPPPPSELNSVEYKCEQGYGIGAVCSPLCVIPPSDPVMLPENITADTLEHWMEPVKVQSIVCTGRRQWHPDPVLVHCIQSCEPFQADGWCDTINNRAYCHYDGGDCCSSTLSSKKVIPFAADCDLDECTCRDPKAEENQ
Regarding B1, the “proteolytic activity, Western blotting using anti-c-myc” value in data set [1] was “In the absence of inhibitors, wild-type PAPP-A2 degraded all rIGFBP-5 (lane 3)”. In addition, the “proteolytic cleavage, ligand blotting with radiolabeled IGF-II” value in data set [2] is reported as “IGFBP-3 was partially degraded”; in data set [3], “Of the six binding proteins, IGFBP-5 showed complete cleavage”.

B2: purified PAPP-A2 (protein)
chain: B1 chain
For B2, the “proteolytic cleavage, SDS-PAGE and N-terminal sequence analysis” value in data set [1] was “PAPP-A2 cleaves IGFBP-5 at one site, between Ser-143 and Lys-144”.
